US20250313644A1
Where two headings read alike, the source gives them in different places.

Key:
[1] = target: human TL1A (HuTL1A) (human) (UniProt O95150)
[2] = target: LIGHT (UniProt O43557); experiment: ELISA, coated LIGHT, Ab 25 nM
[3] = target: LIGHT (UniProt O43557); experiment: ELISA, coated LIGHT, Ab 100 nM
[4] = target: human TL1A (HuTL1A) (human) (UniProt O95150); experiment: competition ELISA: antibody dilution mixed 1:1 with Biotin-TL1A, added to coated DcR3 (1 µg/mL), Streptavidin-HRP, OD450; blocked partner of TL1A: DcR3
[5] = target: LIGHT (UniProt O43557); experiment: ELISA, coated LIGHT, Ab 0.391 nM
[6] = target: LIGHT (UniProt O43557); experiment: ELISA, coated LIGHT, Ab 0.000 nM (blank)
[7] = target: FASL (UniProt P48023); experiment: ELISA, coated FASL, Ab 100 nM
FASL, sequence (P48023 134-281 limits assumed): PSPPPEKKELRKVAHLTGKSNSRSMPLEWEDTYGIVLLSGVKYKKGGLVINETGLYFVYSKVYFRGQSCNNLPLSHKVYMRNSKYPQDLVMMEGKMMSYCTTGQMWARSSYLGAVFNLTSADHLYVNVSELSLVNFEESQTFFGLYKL

[8] = target: T1, LT-α (UniProt P01374); experiment: ELISA, coated LT-α, Ab 0.000 nM (blank)
T1 sequence (looked up): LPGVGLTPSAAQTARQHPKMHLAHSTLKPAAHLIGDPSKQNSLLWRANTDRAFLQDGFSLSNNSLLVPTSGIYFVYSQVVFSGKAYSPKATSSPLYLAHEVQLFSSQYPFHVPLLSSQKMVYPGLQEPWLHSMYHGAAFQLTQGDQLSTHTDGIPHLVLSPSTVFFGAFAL

[9] = target: human TL1A (HuTL1A) (human) (UniProt O95150); remark: listed apart in the source
[10] = target: TNFα (UniProt P01375); experiment: ELISA, coated TNF-α, Ab 1.563 nM
TNFα, sequence (P01375 77-233 limits assumed): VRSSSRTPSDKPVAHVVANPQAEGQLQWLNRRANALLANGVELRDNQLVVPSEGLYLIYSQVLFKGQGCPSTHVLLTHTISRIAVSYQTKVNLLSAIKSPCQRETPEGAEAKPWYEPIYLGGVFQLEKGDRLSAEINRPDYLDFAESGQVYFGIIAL

[11] = target: human TL1A (HuTL1A) (human) (UniProt O95150); experiment: DLS, antigen and antibody mixed in equal moles
[12] = target: LIGHT (UniProt O43557); experiment: ELISA, coated LIGHT, Ab 6.25 nM
[13] = target: T1, LT-α; experiment: ELISA, coated LT-α, Ab 1.563 nM
[14] = target: T1, LT-α; experiment: ELISA, coated LT-α, Ab 0.391 nM
[15] = target: human TL1A (HuTL1A) (human) (UniProt O95150); experiment: competition ELISA: antibody dilution mixed 1:1 with Biotin-TL1A, added to coated DcR3 (1 µg/mL), Streptavidin-HRP, OD450; blocked partner of TL1A: DcR3; remark: listed apart in the source
[16] = target: FASL (UniProt P48023); experiment: ELISA, coated FASL, Ab 25 nM
[17] = target: TNFα (UniProt P01375); experiment: ELISA, coated TNF-α, Ab 25 nM
[18] = target: human TL1A (HuTL1A) (human) (UniProt O95150); experiment: ELISA: biotin-HuTL1A on streptavidin plate, antibody diluted at pH 5.8, HRP-anti-human Fc, OD450
[19] = target: LIGHT (UniProt O43557); experiment: ELISA, coated LIGHT, Ab 1.563 nM
[20] = target: TNFα (UniProt P01375); experiment: ELISA, coated TNF-α, Ab 100 nM
[21] = target: TNFα (UniProt P01375); experiment: ELISA, coated TNF-α, Ab 6.25 nM
[22] = target: FASL (UniProt P48023); experiment: ELISA, coated FASL, Ab 0.391 nM
[23] = target: FASL (UniProt P48023); experiment: ELISA, coated FASL, Ab 0.000 nM (blank)
[24] = target: human TL1A (HuTL1A) (human) (UniProt O95150); experiment: ELISA: biotin-HuTL1A on streptavidin plate, antibody diluted at pH 7.4, HRP-anti-human Fc, OD450
[25] = target: T1, LT-α; experiment: ELISA, coated LT-α, Ab 25 nM
[26] = target: FASL (UniProt P48023); experiment: ELISA, coated FASL, Ab 1.563 nM
[27] = target: FASL (UniProt P48023); experiment: ELISA, coated FASL, Ab 6.25 nM
[28] = target: TNFα (UniProt P01375); experiment: ELISA, coated TNF-α, Ab 0.000 nM (blank)
[29] = target: T1, LT-α; experiment: ELISA, coated LT-α, Ab 100 nM
[30] = target: TNFα (UniProt P01375); experiment: ELISA, coated TNF-α, Ab 0.391 nM
[31] = target: T1, LT-α; experiment: ELISA, coated LT-α, Ab 6.25 nM

LIGHT, sequence (O43557 74-240 limits assumed): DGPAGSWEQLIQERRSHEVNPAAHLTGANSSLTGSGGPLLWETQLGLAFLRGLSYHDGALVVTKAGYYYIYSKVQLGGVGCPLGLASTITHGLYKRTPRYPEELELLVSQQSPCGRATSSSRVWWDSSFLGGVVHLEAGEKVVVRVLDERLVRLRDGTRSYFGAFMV
human TL1A (HuTL1A) (human), sequence (O95150 57-251 limits assumed): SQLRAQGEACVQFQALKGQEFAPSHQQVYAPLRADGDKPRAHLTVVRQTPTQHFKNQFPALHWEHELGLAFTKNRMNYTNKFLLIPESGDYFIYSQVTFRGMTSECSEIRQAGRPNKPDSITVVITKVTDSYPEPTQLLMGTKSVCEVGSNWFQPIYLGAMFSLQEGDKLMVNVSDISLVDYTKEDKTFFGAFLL

IC50 (read off the curve); SEAP reporter in HEK293T/DR3-NFκB cells with soluble TL1A, OD655 [1]: 4 nM
OD450 nm [2]: 0.076
OD450 nm [3]: 0.0864
IC50 (read off the curve) [4]: 7 µg/mL
OD450 nm [5]: 0.0643
OD450 nm [6]: 0.0588
OD450 nm [7]: 0.0828
OD450 nm [8]: 0.0803
IC50 (read off the curve); IFN-γ of human T cells with IL-12, IL-18 and exogenous human TL1A [9]: 1 nM
OD450 nm [10]: 0.0517
Ave Z-dia (nm) of the antigen-antibody complex [11]: 33.1 nm
OD450 nm [12]: 0.0719
OD450 nm [13]: 0.0701
OD450 nm [14]: 0.0713
IC50 (read off the curve) [15]: 30 nM
OD450 nm [16]: 0.0643
OD450 nm [17]: 0.0577
EC50 (read off the curve) [18]: 0.2 nM
OD450 nm [19]: 0.0741
OD450 nm [20]: 0.0757
OD450 nm [21]: 0.0514
OD450 nm [22]: 0.0511
OD450 nm [23]: 0.0549
EC50 (read off the curve) [24]: 0.2 nM
OD450 nm [25]: 0.0659
OD450 nm [26]: 0.0522
OD450 nm [27]: 0.0533
OD450 nm [28]: 0.0612
OD450 nm [29]: 0.0701
OD450 nm [30]: 0.0522
OD450 nm [31]: 0.0646
B1: BM2 antibody (Merck/Prometheus TL1A monoclonal antibody PRA023) (antibody, INN chains, looked up, V domains shown)
VH: QVQLVQSGAEVKKPGASVKVSCKASGFDIQDTYMHWVKQRPGQGLEWMGRIDPASGHTKYDPKFQVRVTITRDTSTSTVYLELSSLRSEDTAVYYCARSGGLPDVWGQGTTVTVSS
VL: EIVLTQSPGTLSLSPGERATLSCRASSSVSYMYWYQQKPGQAPRPLIYATSNLASGIPDRFSGSGSGTDFTLTISRLEPEDFAVYYCQQWEGNPRTFGGGTKLEIK
